Assay results from the RNAGym collection of RNA variant scans (doi:10.1073/pnas.2313332121).
Fewer inactive variants are shown than the library holds.

B1: TPR 5TU (parent)
chain: GGAUCUUCUCGAUCUAACAAAAAAGACAAAUCUGCCACAAAGCUUGAGAGCAUCUUCGGAUGCAGAGGCGGCAGCCUUCGGUGGCGCGAUAGCGCCAACGUUCUCAACUAUGACACGCAAAACGCGUGCUCCGUUGAAUGGAGUUUAUCAUG

Variants of: B1
Assay: polymerase ribozyme fitness, log enrichment relative to wild type (log ratio); higher = more active; in vitro selection for triplet polymerase activity
In short: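 After PCR construction and transcription, each subunit's mutant library from a heterodimeric triplet polymerase ribozyme was annealed with a biotinylated primer, the partner subunit and triplets. Incubation was frozen, at −7 °C, and extended constructs were gel-excised, bound to streptavidin beads and amplified by RT-PCR, in one selection round done in triplicate. Fitness is the logarithm of a genotype's enrichment divided by that of the wild type, from inverse-variance-weighted replicate averages of Illumina-sequenced inputs and outputs. The base of the logarithm is 2, and genotypes needed ≥10 input reads and ≥1 read per output.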

Variant	polymerase ribozyme fitness (log ratio)
U4A G25U C35U C87A C93G	≤ -4.2
U4G A21U U31A G84U A115C	-3.65
C5A A28G C35G A37U C85G C96G C103G U151A	-3.65
U4A A17G C35A G59C U135A	≤ -4.2
U4G C5A U55G	-0.269
A3U G84U	-2.4
A3U G84A	-1.14
U4G A19G A23G G59U A66U G141C	≤ -4.2
U4G G11U A40U U55A A98U	-3.1
U4G C5G A29G A52U G67U C79G G83A	≤ -4.2
U4A A22U C63U G67A C75A G94A C96U	≤ -4.2
A3U G83A C87U U111G	≤ -4.2
U4C C14U U15A A41C C93A C95U	≤ -4.2
U4G A47U G58C C93G	-4
A3U G81C	-0.0386
U4C C5A C10U U33A G88C C116U G140A	≤ -4.2
U4G A24G A47C C51A C54A C76G U82G G86U A115G	≤ -4.2
C5A C8G A21U C54G C57U G58A C69A G81A A115U G133C G143U	≤ -4.2
U4C A23G C85U A98U G117A A119U G141U	≤ -4.2
U4A G11A A26C A60G G84U G126U C149G	≤ -4.2
U4G A106G	-0.112
U4A C43U G65U U77C U111G	≤ -4.2
U4C A12U C57G C85U A98G G128U	≤ -4.2
C5A A21G G88C	-4.09

Variant	polymerase ribozyme fitness (log ratio)
U4A A21C	0.483
A3U G46A G50U U56A G74A G84U U130A U144C C149U	≤ -4.2
U4C C5G A20U	-1.25
U4C A20G C85A A98C A115G	-2.8
C5A A16C G50A C76U G86C U144G	≤ -4.2
C5A A20G C85U C93U A97U	-3.46
A3U G83A C118G A142C	-3.66
U4G A23U U44G C51U C76G C96U U148C	≤ -4.2
A3U U61G C95U	-1.39
U4G G84A C87U A106C G141A U144G	≤ -4.2
U4G A17U C51U A52U C57A C75G G83U G117U G136U	≤ -4.2
A3U G70A A89C U139C U144A	≤ -4.2
U4A	-0.014
U4G	-0.0773
U4C	0.371
U4G C87A	≤ -4.2
A3U U31C C57U G86A	-1.99
U4C A19U G86U	-2.06
U4G C27U A97U	-2.22
A3U U53A	-1.77
U4A A20U G50C U55A A73G G84A G88C C132U U135A	≤ -4.2
C5A A40C G50U C57U G81C C95A U104G C116G G133A	≤ -4.2
A3U U4A A16U U31A C85U G88A C125U U146G	≤ -4.2
U4A A39C U53A C96U C108U A120U C125U	≤ -4.2

Variant	polymerase ribozyme fitness (log ratio)
U4C C35G C96U	≤ -4.2
U4C G74A	-3.29
U4A G83C G94U U148G	≤ -4.2
C5A A19U G86C A147C	-3.38
U4A A16U A17G A21U A24U G84A C114U A122U A142C	≤ -4.2
U4C C57U A66C C87U	≤ -4.2
U4G C38A A47C C85G	-3.7
U4A A12U G80U G81U G92C	-0.513
U4C A22U A26U A40C A52U G67A U90A C99A A150U	≤ -4.2
U4A C8A U56A A122G G141A	-4.11
U4A C5G A22U G25U A30U C63U A66C G143U	≤ -4.2
U4G A89C C131A	-3.28
U4C A47U C85U C105A C116G G143A A147U	≤ -4.2
U4A G65A C85U A97U	-2.2
U4C U33A A40U U82G C96G C108U C118U U139C U148A	≤ -4.2
C5A A17U G83U C87G	≤ -4.2
U4C A22C G48U C93G A122C	-3.98
U4A C51U G94C A98U	-1.63
U4A A23U C35U G46A G84U C103U U139A	≤ -4.2
U4C G58U C75A A91U U104G U144A C149U	≤ -4.2
U4C C85G C99U C125G	-3.5
U4C G48A	-1.42
U4C A17G C18A C57A G59A G68A C96A A107U A121U C123G	≤ -4.2
C5A C14G A37U A52C C85G C99U G140U	≤ -4.2

Variant	polymerase ribozyme fitness (log ratio)
U4C C5G C32A A40C U82C A98G C103U A113C A150C	≤ -4.2
U4G U13G A30C U31A G50U C95U C103A C105U	≤ -4.2
C5A A30G C36U G68U G100A	≤ -4.2
U4G U9A C35A G48C U134G	≤ -4.2
U4G A23C C79A G92C G100A	≤ -4.2
U4C U31C C76G C116G	≤ -4.2
U4C C5A C87A A91G U145A	≤ -4.2
U4C A22U C32G C38G G65C G81A C118U C149U	≤ -4.2
U4G C35U G83C G124U U146C	-2.43
U4A U6A A28U A30G U44A G59C A60G C87U A89U A97C A107U	≤ -4.2
U4G G94A A115U U151G	≤ -4.2
U4G C8G A23C A52G C54G G74C	≤ -4.2
U4C G11A G68A C72A G83U C93G G140A U148C	≤ -4.2
C5A C27U	-1.46
U4A A37C U61A A66G G133U U144A	≤ -4.2
U4A A19U A24U C35A C57G A60C U101G	≤ -4.2
U4C A12G C14U A40G G50A G84U U145C	≤ -4.2
C5A A12G A23C G84A	-4.02
U4G A41U A91C A97U	≤ -4.2
U4G C14U A52U C63U C85U	-4.13
U4G G74A G84U U109A	≤ -4.2
U4G A19C G58U C69U C96A	-0.414
U4G U13A C57A A106C G136A	-1.91
C5A A47U C76G G94C U101G	-4.01

Variant	polymerase ribozyme fitness (log ratio)
U4A A37U G94C A150G	-4.19
U4C C57A C95A C96U G141A	-3.87
U4G G11U G59A C93U C125U U144C	≤ -4.2
A3U U15G C51A G84U U151G	≤ -4.2
C5A A16U A24U C35A U56A C85G U109G U144C	≤ -4.2
U4C A12G A73G C93U G152A	-3.07
U4G G50C A73G U102C	≤ -4.2
U4C C10G A28C A49C G86A C99G U104G	≤ -4.2
U4C C76A C93U G141C	≤ -4.2
U4G U7G A20U C57U A91U C123U A150U	-3
C5A A110C	≤ -4.2
U4G G48U G84A C93A G133A G141C	≤ -4.2
U4C A49G C51A C87A C132U A150C	≤ -4.2
U4A C36A G48C G86A	≤ -4.2
U4G A37C C87U A122G C125A	-3.07
U4C C5U A20C C87A A98C G133U U148G	≤ -4.2
U4A A49G G50C A66C C76G C93U	≤ -4.2
A3U G84A G94A A98C G124A	-0.883
C5A A17C G88A G117U	-3.46
U4A C18U A64C G68A C79G	≤ -4.2
U4A C18U C79G A91U A142C U148C	≤ -4.2
C5A A20U A21U A107G U145C C149U	≤ -4.2
U4A C8U A24C C96U	≤ -4.2
U4C C95U A122U	-0.317

Variant	polymerase ribozyme fitness (log ratio)
C5A C18G A40U	-0.118
C5A A16U G46C G84U A91G U109C A115U G136C	≤ -4.2
U4G G58A C85U A115U U144G	-2.13
C5A	0.273
U4A A16U A113C A115U	≤ -4.2
U4C G11U A49G U61A G80C A98G G141A	≤ -4.2
C5A A28U U55A C57G C96U G141U	≤ -4.2
U4A C103A	-2.38
A3U U82G U104G	-1.04
C5A A37U C51U U56A C79A C96G C116G G133C	≤ -4.2
U4C G42A A49C G50C C51U C79G A91U A121G	≤ -4.2
A3U G62U G94A	-1.08
U4A A29G U61A G94U G126U G133U U151G	≤ -4.2
U4G C38U G58A C95U C96U U127C	-3.54
U4G G48A G88C C123U U134G A137C	≤ -4.2
U4A C5G C69U C79U C85U G94C G117A G128U	≤ -4.2
U4C A16C A17C	-0.602
U4A A28U C93U A97U C105G G126A G136U	≤ -4.2
U4G A49G C87G	≤ -4.2
C5A A49U C57A	-0.832
A3U G88A A110G	≤ -4.2
U4C A12G U31G G94C A121G	-0.0351
U4C A16G A21G A41C A49U U56A G86A U135A A150G	≤ -4.2
A3U G48A A89G C95A U102G	≤ -4.2

Variant	polymerase ribozyme fitness (log ratio)
U4G U33G C75A C87G U109A A113U G117U	≤ -4.2
U4A C96A A98C A115U A142U G152C	≤ -4.2
U4C C10U A20C A29U A52C A138C G140U	≤ -4.2
U4A A22C U56A G124U U135C	-3.48
U4G U56A A60C C76G A91C C95U A142C	≤ -4.2
C5A A60G	0.956
U4G U6G C85U G141A	-3.39
U4C A22G G86A	-1.64
U4G A22U A37C C95A C96A U127G	≤ -4.2
C5A A26U A52G G86A G88C A113U G141A	≤ -4.2
A3U U56C C87U A89G U101G	-2.52
U4G G11U A20U A28U U56A C85U C99U U151A	≤ -4.2
U4C G11A C57A C96U G124A A150C	≤ -4.2
A3U G80U G94U U104G C108U G126C U148A	≤ -4.2
U4G U7G A49U C75G C93U	≤ -4.2
U4A G11C A41U G50C G58A G59U U82C C87U G92U G140A	≤ -4.2
A3U U7C U56A G58C A60C G70C G88A G94A A115U	≤ -4.2
U4C C36U A49G A66U G83A C85G G88A C114U U146G	≤ -4.2
U4A U45A C57U A91C	≤ -4.2
U4A C76A G86C A122C	-3.26
A3U G25U C27U C36A C87U C105G C118U G152C	≤ -4.2
A3U U7G C87A A91G C103U U135C	≤ -4.2
U4C U6G U55A C93G C103G A150U	≤ -4.2
